± gives the standard error. For some of these results: This sample holds only a part of the variants without activity.
B1: glmS ribozyme (parent)
chain: AUAAAAGCGCCAGAACUACAGAAAUGUAGUUGACGAGGAGGAGGUUUAUCGAAUUUUCGGCGGAUGCCUCCAAA

Assays:
Conditions in all cases: with glucosamine-6-phosphate
[1] = variants of: B1; test: kcat; higher = faster cleavage; RNA array
Summary of the method: (§1)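 Barcoded ribozyme variants on sequenced MiSeq chips were transcribed in situ by E. coli RNA polymerase and followed at 37 °C through a hybridised Cy3 probe. Glucosamine-6-phosphate at 40 μM to 10 mM in HEPES/KCl/Mg(OAc)2 buffer was flowed in, and tiles were imaged over ~14 h. Signals were normalised to baseline and to non-cleaving reference variants, and per-tile medians were fit to one- or two-exponential decays to give kobs. Weighted Michaelis–Menten fits across concentrations gave kcat and KM.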

[2] = variants of: B1; test: KM; higher = weaker cofactor use; RNA array
Summary of the method: as §1

[3] = variants of: B1; test: self-cleavage kobs at 40 uM GlcN6P; higher = faster cleavage; RNA array
Summary of the method: as §1

[4] = variants of: B1; test: self-cleavage kobs at 640 uM GlcN6P; higher = faster cleavage; RNA array
Summary of the method: as §1

[5] = variants of: B1; test: self-cleavage kobs at 2500 uM GlcN6P; higher = faster cleavage; RNA array
Summary of the method: as §1

[6] = variants of: B1; test: self-cleavage kobs at 10000 uM GlcN6P; higher = faster cleavage; RNA array
Summary of the method: as §1

[7] = variants of: B1; test: self-cleavage kobs at 160 uM GlcN6P; higher = faster cleavage; RNA array
Summary of the method: as §1

Variant	kcat [1] [s⁻¹]	KM [2] [µM]	self-cleavage kobs at 40 uM GlcN6P [3] [s⁻¹]	self-cleavage kobs at 640 uM GlcN6P [4] [s⁻¹]	self-cleavage kobs at 2500 uM GlcN6P [5] [s⁻¹]	self-cleavage kobs at 10000 uM GlcN6P [6] [s⁻¹]	self-cleavage kobs at 160 uM GlcN6P [7] [s⁻¹]
G40A U55C	0.0017 ± 0.00029	1980 ± 650	4.24e-05 ± 1.5e-05	0.00035 ± 0.0001	0.00119 ± 0.00036	0.0014 ± 0.00025	
A33U C58A	< 1e-05			< 1e-05			< 1e-05
C10G A14G G32C G37A C67G	2.2e-05 ± 6.4e-06						
U31A G40U	0.00159 ± 0.00017	1080 ± 240	6.29e-05 ± 1.4e-05	0.000444 ± 0.00018	0.00109 ± 0.00024	0.00148 ± 0.00022	
U30G A48U	7.56e-05 ± 6e-06	1040 ± 340	< 1e-05		5.84e-05 ± 1.2e-05	6.65e-05 ± 1.1e-05	< 1e-05
A12U C58U	7.97e-05 ± 5.4e-06	662 ± 220	< 1e-05	4.45e-05 ± 1.4e-05	5.86e-05 ± 9.3e-06	7.81e-05 ± 1.1e-05	
A52U U56A	7.93e-05 ± 2e-05		< 1e-05		7.17e-05 ± 1.7e-05	6.73e-05 ± 9.7e-06	
G32U C70A	4.97e-05 ± 4.6e-06			4.67e-05 ± 1.8e-05	5.83e-05 ± 1.3e-05	4.67e-05 ± 6.5e-06	
G60C C68U	< 1e-05						< 1e-05
G13C A39G	0.000183 ± 2.5e-05	4230 ± 1300			7.1e-05 ± 1.4e-05	0.000128 ± 2e-05	
U31G U56C	0.000772 ± 3.5e-05	2210 ± 180		0.000179 ± 2.9e-05	0.000413 ± 0.00012	0.000628 ± 9.2e-05	4.9e-05 ± 1.7e-05
U31G C68U	0.00134 ± 0.00023	2020 ± 590	3.14e-05 ± 7.7e-06	0.000312 ± 4.3e-05	0.000606 ± 0.0001	0.00126 ± 0.00015	0.000119 ± 2.9e-05
A14C C67G	0.000353 ± 6.7e-05	2730 ± 860		6.56e-05 ± 5.7e-06	0.000156 ± 1.5e-05	0.000293 ± 2.8e-05	3.67e-05 ± 7.3e-06
A15G A39U	0.0505 ± 0.019	4740 ± 2300	0.0006 ± 7.9e-05	0.00551 ± 0.001	0.0136 ± 0.0025	0.0387 ± 0.0051	0.00146 ± 0.00026
C11A C71A	6.72e-05 ± 2.1e-05				2.11e-05 ± 9e-06	4.87e-05 ± 6.4e-06	
G35U G51C	< 1e-05			< 1e-05			< 1e-05
U56G C68U	0.00243 ± 0.00033	1660 ± 380	6.61e-05 ± 1.1e-05	0.000551 ± 9.7e-05	0.00206 ± 0.00046	0.00208 ± 0.00021	0.000217 ± 4.7e-05
G32A U55A C68A	3.25e-05 ± 3.5e-06						

Variant	kcat [1] [s⁻¹]	KM [2] [µM]	self-cleavage kobs at 40 uM GlcN6P [3] [s⁻¹]	self-cleavage kobs at 640 uM GlcN6P [4] [s⁻¹]	self-cleavage kobs at 2500 uM GlcN6P [5] [s⁻¹]	self-cleavage kobs at 10000 uM GlcN6P [6] [s⁻¹]	self-cleavage kobs at 160 uM GlcN6P [7] [s⁻¹]
U30A G40A	0.0022 ± 0.0011		4.53e-05 ± 1.6e-05	0.000134 ± 5.6e-05	0.000927 ± 0.0002	0.0014 ± 0.00025	7.47e-05 ± 1.6e-05
C58G C70G	5.46e-05 ± 1.6e-05			7.73e-05 ± 2e-05	5.92e-05 ± 1.4e-05		4.69e-05 ± 1.8e-05
U47C C58G G59A C61U C71A	1.36e-05 ± 3.4e-06						
G40U C67A	0.000158 ± 6.3e-05			7.75e-05 ± 1.4e-05	9.78e-05 ± 1.7e-05	0.000218 ± 5.5e-05	
G32U U54A	0.00121 ± 4.3e-05	6510 ± 320		0.000107 ± 1.4e-05	0.000344 ± 4.3e-05	0.000726 ± 0.0001	
U45C C70G	0.00245 ± 0.00063			8.88e-05 ± 3.7e-05	0.000381 ± 7.3e-05	0.001 ± 0.00025	3.27e-05 ± 1.6e-05
G29C A64G	0.00121 ± 0.00056		3.98e-05 ± 1.1e-05	0.000339 ± 5.2e-05	0.000495 ± 0.00014	0.00181 ± 0.00034	0.000126 ± 2.9e-05
G29U G41C U54G C70G	0.0128 ± 0.0056		0.00037 ± 9.8e-05	0.00251 ± 0.00059	0.0068 ± 0.0018	0.0126 ± 0.0039	
U30G U46A	0.000655 ± 7e-05	3710 ± 930			0.000252 ± 5.8e-05	0.000483 ± 6.6e-05	
C68G U69C	1.67e-05 ± 1.9e-06					< 1e-05	
C10U A12U C50U	2.27e-05 ± 6.7e-06						
G9A U49A A52G	< 1e-05						
G32C G41U	< 1e-05		< 1e-05				< 1e-05
C50G C67A	0.000178 ± 2.6e-05		9.53e-05 ± 1.2e-05	0.000259 ± 3.2e-05	0.000183 ± 2.4e-05	0.000145 ± 1.9e-05	0.000153 ± 2e-05
G41U C68U	5.17e-05 ± 8.8e-06						< 1e-05
U31C G59A	1.58e-05 ± 4.5e-06						
A42U U45C	0.000116 ± 1e-05	2890 ± 650		2.56e-05 ± 1.1e-05	5.1e-05 ± 1e-05	9.13e-05 ± 1.2e-05	
G29C C61G	2.64e-05 ± 1e-05		< 1e-05				

From the supplement of paper PMC7125110
